{"source": "patent US11213590B2", "about": "“SSTR-targeted conjugates and particles and formulations thereof” (priority 2016, dated 2022)", "key": {"[1]": {"system": "HCC-33", "experiment": "Inhibition of proliferation, CellTiter-Glo, HCC-33", "format": "cell-based, human", "protocol": "The purpose of this study was to determine the receptor-dependent inhibition of proliferation in vitro by the somatostatin targeting conjugate Conjugate 57 and determine the sensitivity to DM1 in the human SSTR2 expressing cancer cell lines: NCI-H69, NCI-H82, NCI-H727 and HCC-33. Cells were incubated with Conjugate 57 for 6 hours, in the presence or absence of an excess of octreotide, a somatostatin analogue. A three-fold serial dilution of Conjugate 57 was used for a total of ten concentration points. After treatment, cells were washed, incubated for an additional period of time, either 72 or 96 hours and proliferation was measured using the CellTiter-Glo® Luminescent Cell Viability Assay. The IC50 of Conjugate 57 was used to determine the inhibiting activity in proliferation assays. To determine DM1 sensitivity a similar method to the Conjugate 57 assay was employed with the additional incubation time points of 30 minutes, 1, 2, and 4 hours and the exclusion of the pre-treatment with octreotide. DM1 effect from the most to least sensitive cell line was determined to be: NCI-H69>HCC-33>NCI-H82>NCI-H727 (Table 5B). […] The addition of excess octreotide (100 μM) competes with Conjugate 57 for binding to the SSTR2 receptor. […] In the NCI-H69 experiments, pre-incubation with an excess of octreotide modestly diminished the activity of Conjugate 57 by 1.6 and 2.4 fold, depending on the assay conditions. In the HCC-33 cell line, activity of Conjugate 57 was 3.2 (±1.4) times higher when dosed alone, compared to when the cells were pre-incubated with octreotide. The small but measureable changes in Conjugate 57 activity in the presence of excess octreotide seen in the NCI-H69 and HCC-33 cell lines supports the receptor dependence of the Conjugate 57 antiproliferative effect seen in vitro. In summary, although all the cell lines tested in these experiments express the SSTR2 protein, they have different levels of sensitivity to the Conjugate 57 conjugate of which the DM1 sensitivity may be a contributing factor."}, "[2]": {"system": "NCI-H69 xenograft", "experiment": "NCI-H69 lung xenograft efficacy, formulations and schedules", "format": "in vivo, mice", "settings": "for MTV (Mean Tumor Volume): total dose 2.0 mg/kg; for MTV (Mean Tumor Volume) / mice with complete tumor regression: Day 21", "protocol": "A further NCI-H69 study design included Conjugate 57 dosed iv at 1.0 mg/kg formulated in propylene glycol (PG), 1.0 mg/kg formulated in Solutol HS15, 0.5 mg/kg formulated in Solutol HS15 dosed twice per week, and 0.33 mg/kg formulated in Solutol HS15 dosed three times per week. A comparator group was dosed with SOC cisplatin dosed iv at 5.0 mg/kg once per week/etoposide dosed ip at 8.0 mg/kg three times per week over two weeks. A negative control vehicle was dosed with the Solutol HS 15 vehicle. All groups contained 10 animals."}, "[3]": {"experiment": "Drug substance stability study", "format": "physicochemical", "protocol": "Stability studies were carried out for Conjugate 57. The tests included in the stability protocols ensure that changes relating to appearance, strength, purity, and moisture of the drug substance are monitored through-out the shelf life of the drug substance. Endotoxins are also monitored by annual inclusion of tests for these attributes in the stability program.\nIn another stability study, the following conditions were tested: 5° C.±3° C. under nitrogen and −20° C.±5° C. under nitrogen. Nitrogen was selected to prevent oxidation and assure control atmosphere during storage."}, "[4]": {"experiment": "Excipient solubility and compatibility testing", "format": "physicochemical", "protocol": "Conjugate 57 is an amphiphilic molecule and therefore tends to self-assemble into large structures. […] Commonly used parenteral surfactant excipients such as Polysorbate 80 (Tween 80) and Polyoxyl 15 Hydroxystearate (solutol, Kolliphor HS 15) were evaluated to re-assemble and stabilize Conjugate 57 into organized micelles. Conjugate 57 is compatible with non-ionic surfactants such as Tween 80 and solutol."}, "[5]": {"target": "SSTR4 (Homo sapiens, UniProt P31391)", "sequence (P31391 whole entry)": "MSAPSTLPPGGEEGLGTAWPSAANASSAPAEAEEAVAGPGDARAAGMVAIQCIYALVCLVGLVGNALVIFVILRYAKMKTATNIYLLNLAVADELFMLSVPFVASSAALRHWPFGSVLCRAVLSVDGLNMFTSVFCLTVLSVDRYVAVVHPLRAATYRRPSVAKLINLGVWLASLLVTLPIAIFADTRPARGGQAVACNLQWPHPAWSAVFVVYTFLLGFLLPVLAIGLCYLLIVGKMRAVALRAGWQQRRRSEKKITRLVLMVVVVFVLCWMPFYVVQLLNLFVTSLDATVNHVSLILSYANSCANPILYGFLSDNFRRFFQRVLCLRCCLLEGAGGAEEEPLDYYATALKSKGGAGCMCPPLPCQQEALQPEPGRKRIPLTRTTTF", "experiment": "Affinity profile (half-maximal inhibitory concentration), SSTR4", "format": "binding", "text": "DOTATE, also known as DOTA-TATE or DOTA-octreotate, comprises an amide of the acid DOTA, which connects a radionuclide and (Tyr3)-octreotate, a derivative of octreotide. DOTATOC, also known as edotreotide, SMT487, or (DOTA^0-Phe^1-Tyr^3)octreotide, is also an octreotide derivative which can be bound to radionuclides for diagnosis and treatment."}, "[6]": {"experiment": "Pharmacokinetics in patients", "format": "in vivo", "settings": "human, venous blood, intravenous; in a patient", "protocol": "For C1D1 and C3D1, venous blood samples (4-6 ml) for determination of Conjugate 57, the somatostatin analog peptide component of Conjugate 57 (BT-979), and DM1 (total, unconjugated, and free sulfhydryl) are taken before the start of the infusion, at 0.5 hours (±1 minute) after the start of study drug infusion; precisely at the end of infusion; and 1.5 hours (±5 minutes), 2 hours (±5 minutes), 4 hours (±5 minutes), 6 hours (±5 minutes), 8 hours (±5 minutes), and 10 hours (±5 minutes) after the start of study drug infusion. If the 10 hour time point requires an inpatient admission at the center, the 10 hour time point is not collected. The date and time of collection of each sample are recorded."}, "[7]": {"settings": "Lot 1, 5° C. ± 3° C. study, Initial"}, "[8]": {"settings": "Lot 1, −20° C. ± 5° C. study, Initial"}, "[9]": {"settings": "Lot 1 stored at 5° C. ± 3° C., 3 Month"}, "[10]": {"settings": "Lot 1 stored at −20° C. ± 5° C., 3 Month"}, "[11]": {"settings": "Lot 2, 5° C. ± 3° C./Ambient RH under nitrogen, Initial"}, "[12]": {"settings": "Lot 2, 25° C. ± 2° C., 60% RH ± 5% RH study, Initial"}, "[13]": {"settings": "Lot 2 stored at 5° C. ± 3° C./Ambient RH under nitrogen, 1 Month"}, "[14]": {"settings": "Lot 2 stored at 5° C. ± 3° C./Ambient RH under nitrogen, 1 Month, preliminary identification"}, "[15]": {"settings": "Lot 2 stored at 25° C. ± 2° C., 60% RH ± 5% RH, 3 Month"}}, "note": "Marks after values point to notes of the source that are not given here."}
{"smiles": "COc1cc2cc(c1Cl)N(C)C(=O)C[C@H](OC(=O)[C@H](C)N(C)C(=O)CCSSC[C@H](NC(=O)[C@@H]1CSSC[C@H](NC(=O)[C@H](N)Cc3ccccc3)C(=O)N[C@@H](Cc3ccc(O)cc3)C(=O)N[C@H](Cc3c[nH]c4ccccc34)C(=O)N[C@@H](CCCCN)C(=O)N[C@@H]([C@@H](C)O)C(=O)N1)C(N)=O)[C@]1(C)O[C@H]1[C@H](C)[C@@H]1C[C@@](O)(NC(=O)O1)[C@H](OC)/C=C/C=C(\\C)C2", "note": "[Conjugate 57]", "values": [{"measurement": "activity dosed alone compared to pre-incubation with octreotide", "setting": "[1]", "value": "3.2 (±1.4) times higher"}, {"measurement": "IC50", "setting": "[1]; 5,000 cells/well, assay duration 72 h (repeat experiments), read-out: Inhibition of Proliferation IC50 Without Octreotide", "value": 230, "unit": "nM"}, {"measurement": "MTV (Mean Tumor Volume)", "setting": "[2]; 0.33 mg/kg iv in Solutol HS15, 3 doses per week", "value": 330, "unit": "mm3"}, {"measurement": "mice with complete tumor regression", "setting": "[2]; 0.33 mg/kg three times per week in Solutol HS15", "value": "no mice having complete tumor regressions"}, {"measurement": "MTV (Mean Tumor Volume)", "setting": "[2]; 0.5 mg/kg iv in Solutol HS15, 2 doses per week", "value": 105, "unit": "mm3"}, {"measurement": "mice with complete tumor regression", "setting": "[2]; 0.5 mg/kg twice weekly in Solutol HS15, 10 animals", "value": "1/10"}, {"measurement": "mice with complete tumor regression", "setting": "[2]; 1.0 mg/kg in PG, 10 animals", "value": "2/10"}, {"measurement": "mice with complete tumor regression", "setting": "[2]; 1.0 mg/kg in Solutol HS15, 10 animals", "value": "3/10"}, {"measurement": "MTV (Mean Tumor Volume)", "setting": "[2]; 1.0 mg/kg iv in PG, 1 dose per week", "value": 178, "unit": "mm3"}, {"measurement": "MTV (Mean Tumor Volume)", "setting": "[2]; 1.0 mg/kg iv in Solutol HS15, 1 dose per week", "value": 55, "unit": "mm3"}, {"measurement": "adverse effects with health observations", "setting": "[2]; NCI-H69 xenograft", "value": "No adverse effects"}, {"measurement": "weight loss", "setting": "[2]; NCI-H69 xenograft, all Conjugate 57 groups", "value": "No weight loss"}, {"measurement": "degradation on storage", "setting": "[3]; 5° C.±3° and 25° C./60% Relative Humidity (RH), 3 months", "value": "Significant degradation"}, {"measurement": "Appearance", "setting": "[3]; [7]", "value": "White powder"}, {"measurement": "Assay", "setting": "[3]; [7]", "value": 88.2, "unit": "%"}, {"measurement": "Moisture Content by KF", "setting": "[3]; [7]", "value": 4.3, "unit": "%"}, {"measurement": "Purity (RP-HPLC)", "setting": "[3]; [7]", "value": 98.0, "unit": "%"}, {"measurement": "Total Impurities", "setting": "[3]; [7]", "value": 1.9, "unit": "%"}, {"measurement": "Appearance", "setting": "[3]; [8]", "value": "White powder"}, {"measurement": "Assay", "setting": "[3]; [8]", "value": 88.2, "unit": "%"}, {"measurement": "Moisture Content by KF", "setting": "[3]; [8]", "value": 4.3, "unit": "%"}, {"measurement": "Purity (RP-HPLC)", "setting": "[3]; [8]", "value": 98.0, "unit": "%"}, {"measurement": "Total Impurities", "setting": "[3]; [8]", "value": 1.9, "unit": "%"}, {"measurement": "Appearance", "setting": "[3]; [9]", "value": "White powder"}, {"measurement": "Assay", "setting": "[3]; [9]", "value": 88.2, "unit": "%"}, {"measurement": "Purity (RP-HPLC)", "setting": "[3]; [9]", "value": 97.4, "unit": "%"}, {"measurement": "Total Impurities", "setting": "[3]; [9]", "value": 2.5, "unit": "%"}, {"measurement": "Appearance", "setting": "[3]; [10]", "value": "White powder"}, {"measurement": "Assay", "setting": "[3]; [10]", "value": 90.9, "unit": "%"}, {"measurement": "Purity (RP-HPLC)", "setting": "[3]; [10]", "value": 98.0, "unit": "%"}, {"measurement": "Total Impurities", "setting": "[3]; [10]", "value": 1.9, "unit": "%"}, {"measurement": "Appearance", "setting": "[3]; [11]", "value": "White powder"}, {"measurement": "Assay", "setting": "[3]; [11]", "value": 97.0, "unit": "%"}, {"measurement": "Moisture Content by KF", "setting": "[3]; [11]", "value": 2.1, "unit": "%"}, {"measurement": "Purity (RP-HPLC)", "setting": "[3]; [11]", "value": 98.0, "unit": "%"}, {"measurement": "Total Impurities", "setting": "[3]; [11]", "value": 2.0, "unit": "%"}, {"measurement": "Starting Materials: BT-976 content", "setting": "[3]; Lot 2, 5° C. ± 3° C./Ambient RH under nitrogen, Initial, preliminary identification by marker retention time", "value": 0.05, "unit": "%^a"}, {"measurement": "Appearance", "setting": "[3]; [12]", "value": "White powder"}, {"measurement": "Assay", "setting": "[3]; [12]", "value": 88.2, "unit": "%"}, {"measurement": "Moisture Content by KF", "setting": "[3]; [12]", "value": 4.3, "unit": "%"}, {"measurement": "Purity (RP-HPLC)", "setting": "[3]; [12]", "value": 98.0, "unit": "%"}, {"measurement": "Total Impurities", "setting": "[3]; [12]", "value": 1.9, "unit": "%"}, {"measurement": "Appearance", "setting": "[3]; [13]", "value": "White powder"}, {"measurement": "Assay", "setting": "[3]; [13]", "value": 94.6, "unit": "%"}, {"measurement": "Moisture Content by KF", "setting": "[3]; [13]", "value": 1.9, "unit": "%"}, {"measurement": "Purity (RP-HPLC)", "setting": "[3]; [13]", "value": 96.6, "unit": "%"}, {"measurement": "Total Impurities", "setting": "[3]; [13]", "value": 3.4, "unit": "%"}, {"measurement": "Starting Materials: BT-976 content", "setting": "[3]; [14]", "value": 0.05, "unit": "% a"}, {"measurement": "Starting Materials: DM1 content", "setting": "[3]; [14]", "value": 0.09, "unit": "% a"}, {"measurement": "Appearance", "setting": "[3]; [15]", "value": "White powder"}, {"measurement": "Assay", "setting": "[3]; [15]", "value": 78.7, "unit": "%"}, {"measurement": "Purity (RP-HPLC)", "setting": "[3]; [15]", "value": 90.8, "unit": "%"}, {"measurement": "Total Impurities", "setting": "[3]; [15]", "value": 9.2, "unit": "%"}, {"measurement": "change in purity on storage", "setting": "[3]; after 3 months at −20° C.±5° C.", "value": "No significant change in purity"}, {"measurement": "time stable", "setting": "[3]; at −20° C.", "value": "at least 3 months"}, {"measurement": "solubility", "setting": "[4]; in saline", "value": "< 1000", "unit": "µg/mL"}, {"measurement": "excipient compatibility", "setting": "[4]; non-ionic surfactants such as Tween 80 and solutol", "value": "compatible"}, {"measurement": "excipient compatibility", "setting": "[4]; tocophersolan (TPGS), super refined PEG 300, PEG 400, ethanol, dextrose, or Pluronics F68", "value": "not compatible"}, {"measurement": "IC50", "setting": "[5]", "value": "> 1000", "unit": "nM"}, {"measurement": "half-life", "setting": "[6]", "value": "~1.8", "unit": "h"}]}
